Source: the supplement of paper PMC9732359
± gives the uncertainty stated by the source.

Assay: protein stability index of a GFP-peptide fusion (yeast GPS) (PSI 1-4); higher = more stable; sorted into four equal gates, so the index is relative within each strain
Procedure, shortened: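 Tiled yeast protein peptides of 17 residues were each joined downstream of GFP, on plasmids that also express Cherry. The pooled library was maintained in yeast, and mid-log cultures in leucine-free medium were sorted into four equal gates on the GFP/Cherry ratio. Plasmids from every gate were amplified by PCR and sequenced on Illumina, with barcodes linking reads to strains. The protein stability index of a peptide is its gate-number-weighted read frequency summed over the gates.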

RRRREGKTDYYQRKRLV [RPL5]
protein stability index (doa10∆): 3.31 ± 0.094
protein stability index (pdr5∆): 3.26 ± 0.079
protein stability index (san1∆): 3.13 ± 0.046
protein stability index (ubr1∆): 3.26 ± 0.035

ADDADIEMKDVSSKPSK [MED1]
protein stability index (doa10∆): 3.17 ± 0.1
protein stability index (pdr5∆): 3.29 ± 0.11
protein stability index (san1∆): 2.95 ± 0.065
protein stability index (ubr1∆): 3.26 ± 0.066

HYPEIEDLVDRIENPEK [RPP0]
protein stability index (doa10∆): 2.84 ± 0.1
protein stability index (pdr5∆): 3.17 ± 0.081
protein stability index (san1∆): 2.97 ± 0.12
protein stability index (ubr1∆): 3.05 ± 0.072

HEIYGSMPLEQLIPIIL [SRB4]
protein stability index (doa10∆): 2.06 ± 0.06
protein stability index (pdr5∆): 2.08 ± 0.068
protein stability index (san1∆): 2.37 ± 0.08
protein stability index (ubr1∆): 1.72 ± 0.059

PPKHTELLLTTLSVSHG [SSN2]
protein stability index (doa10∆): 1.79 ± 0.038
protein stability index (pdr5∆): 1.8 ± 0.038
protein stability index (san1∆): 1.55 ± 0.07
protein stability index (ubr1∆): 1.61 ± 0.027

KSGRINGFHGRLGDLGV [SMC4]
protein stability index (doa10∆): 3.41 ± 0.11
protein stability index (pdr5∆): 3.43 ± 0.093
protein stability index (san1∆): 3.13 ± 0.1
protein stability index (ubr1∆): 3.31 ± 0.045

IAATGLNQINGLNNDFL [GRR1]
protein stability index (doa10∆): 3.34 ± 0.17
protein stability index (pdr5∆): 3.26 ± 0.14
protein stability index (san1∆): 3 ± 0.1
protein stability index (ubr1∆): 3.19 ± 0.12

NVTLVNGKRRMNPGPSV [RPS30A]
protein stability index (doa10∆): 2.37 ± 0.059
protein stability index (pdr5∆): 2.79 ± 0.035
protein stability index (san1∆): 2.67 ± 0.055
protein stability index (ubr1∆): 2.65 ± 0.039

HLNFPNVKFLRIFISNV [SNF12]
protein stability index (doa10∆): 1.79 ± 0.071
protein stability index (pdr5∆): 1.26 ± 0.094
protein stability index (san1∆): 1.27 ± 0.13
protein stability index (ubr1∆): 1.19 ± 0.087

YQRPMQVQGQQQAQSFV [SSN3]
protein stability index (doa10∆): 2.42 ± 0.044
protein stability index (pdr5∆): 2.71 ± 0.045
protein stability index (san1∆): 2.5 ± 0.05
protein stability index (ubr1∆): 2.63 ± 0.035

HPFGHALVAGIERYPSK [RPL27B]
protein stability index (doa10∆): 2.43 ± 0.14
protein stability index (pdr5∆): 2.67 ± 0.1
protein stability index (san1∆): 2.24 ± 0.16
protein stability index (ubr1∆): 2.46 ± 0.17

IIKDYVLDIVPGSSITE [SRB4]
protein stability index (pdr5∆): 2.58 ± 0.19
protein stability index (ubr1∆): 3.2 ± 0.19

KSSLYSAQDLLDKHERK [YIL149C/MLP2]
protein stability index (doa10∆): 3.05 ± 0.084
protein stability index (pdr5∆): 3.01 ± 0.075
protein stability index (san1∆): 2.83 ± 0.11
protein stability index (ubr1∆): 3.15 ± 0.036

VTNALDNIDEKVVKAIR [NUT1]
protein stability index (doa10∆): 3.04 ± 0.16
protein stability index (pdr5∆): 2.37 ± 0.14
protein stability index (san1∆): 3.07 ± 0.083
protein stability index (ubr1∆): 1.61 ± 0.048

INGINWRFHTPQKYVLH [SIN4]
protein stability index (doa10∆): 2 ± 0.057
protein stability index (pdr5∆): 1.92 ± 0.052
protein stability index (san1∆): 1.83 ± 0.097
protein stability index (ubr1∆): 1.97 ± 0.042

VSSSKNKKSEENEMIKP [SWP82]
protein stability index (doa10∆): 2.72 ± 0.25
protein stability index (pdr5∆): 3.34 ± 0.14
protein stability index (san1∆): 3.18 ± 0.14
protein stability index (ubr1∆): 3.49 ± 0.28

VPPINCIFNFLQQQTPV [SME1]
protein stability index (doa10∆): 1.34 ± 0.042
protein stability index (pdr5∆): 1.58 ± 0.035
protein stability index (san1∆): 1.49 ± 0.065
protein stability index (ubr1∆): 1.64 ± 0.042

KHGTYDKLDDDGLIAPG [RPB2]
protein stability index (doa10∆): 3.02 ± 0.21
protein stability index (pdr5∆): 2.92 ± 0.24

KLAFGLTKLNEDDLVGV [TAF14]
protein stability index (doa10∆): 2.94 ± 0.092
protein stability index (pdr5∆): 3.15 ± 0.072
protein stability index (san1∆): 3.25 ± 0.054
protein stability index (ubr1∆): 3 ± 0.057

RSDSYMLHKVLENKADP [RPT6]
protein stability index (doa10∆): 2.65 ± 0.1
protein stability index (pdr5∆): 2.99 ± 0.1
protein stability index (san1∆): 2.93 ± 0.056
protein stability index (ubr1∆): 2.83 ± 0.091

QQRIREIGLLPEDALVN [SMC3]
protein stability index (san1∆): 3.27 ± 0.2
protein stability index (ubr1∆): 3.25 ± 0.13

DSEDEDSMKDTTDMISV [YML031W/NDC1]
protein stability index (doa10∆): 3.17 ± 0.17
protein stability index (san1∆): 3.2 ± 0.11
protein stability index (ubr1∆): 2.98 ± 0.21

IWLLSYIQYLGHLPEVS [ECM29]
protein stability index (doa10∆): 1.62 ± 0.071
protein stability index (pdr5∆): 1.9 ± 0.06
protein stability index (san1∆): 2.21 ± 0.063
protein stability index (ubr1∆): 1.92 ± 0.057

KSFYSTATGAASKSGKL [CYT1]
protein stability index (doa10∆): 2.74 ± 0.091
protein stability index (pdr5∆): 2.62 ± 0.1
protein stability index (san1∆): 2.87 ± 0.079
protein stability index (ubr1∆): 2.75 ± 0.059

PTTNEPAKPALSFGTAT [YJL041W/NSP1]
protein stability index (doa10∆): 2.97 ± 0.074
protein stability index (pdr5∆): 3.08 ± 0.063
protein stability index (san1∆): 2.96 ± 0.053
protein stability index (ubr1∆): 3.12 ± 0.042

GIEHFDIPPPAIMKPYY [RPO31]
protein stability index (doa10∆): 2.69 ± 0.15
protein stability index (pdr5∆): 2.92 ± 0.084
protein stability index (san1∆): 3.34 ± 0.13
protein stability index (ubr1∆): 2.91 ± 0.099

FTGEKPIITGSTSTSSS [MED8]
protein stability index (doa10∆): 2.71 ± 0.062
protein stability index (pdr5∆): 2.7 ± 0.054
protein stability index (san1∆): 2.78 ± 0.052
protein stability index (ubr1∆): 2.13 ± 0.043

IYDSEDPQQVFDERIKF [RPN3]
protein stability index (doa10∆): 3.05 ± 0.11
protein stability index (pdr5∆): 3.09 ± 0.089
protein stability index (san1∆): 3.23 ± 0.08
protein stability index (ubr1∆): 2.89 ± 0.06

KYMVKGGLSGEESIKIY [UBP6]
protein stability index (doa10∆): 2.32 ± 0.13
protein stability index (pdr5∆): 2.47 ± 0.1
protein stability index (san1∆): 2.36 ± 0.093
protein stability index (ubr1∆): 2.67 ± 0.07

LYQSKGRYMEALALYVD [SRP68]
protein stability index (doa10∆): 1.86 ± 0.076
protein stability index (pdr5∆): 1.9 ± 0.14
protein stability index (san1∆): 1.9 ± 0.15
protein stability index (ubr1∆): 2 ± 0.11

EELLDNCIETFVAEKTT [SRB6]
protein stability index (doa10∆): 2.43 ± 0.16

LSKMRDSVLQLASFEKT [RPO31]
protein stability index (doa10∆): 3.12 ± 0.13
protein stability index (pdr5∆): 2.97 ± 0.079
protein stability index (san1∆): 2.91 ± 0.11
protein stability index (ubr1∆): 3.01 ± 0.11

LERFNKRADISKRRITE [SMC1]
protein stability index (doa10∆): 3.14 ± 0.14
protein stability index (pdr5∆): 2.7 ± 0.074
protein stability index (san1∆): 2.96 ± 0.17
protein stability index (ubr1∆): 2.99 ± 0.13

EFGADWYKVAKNVGNKS [SWI3]
protein stability index (doa10∆): 3.35 ± 0.1
protein stability index (pdr5∆): 3.34 ± 0.083
protein stability index (san1∆): 3.35 ± 0.048
protein stability index (ubr1∆): 3.3 ± 0.051

LIQQVPPGLDALVKPET [CDC53]
protein stability index (doa10∆): 3.02 ± 0.12
protein stability index (pdr5∆): 2.98 ± 0.13
protein stability index (san1∆): 2.83 ± 0.13
protein stability index (ubr1∆): 3.24 ± 0.14

FTVDKKIAERSLLLKNY [SKP1]
protein stability index (doa10∆): 3.44 ± 0.15
protein stability index (pdr5∆): 3.11 ± 0.14
protein stability index (san1∆): 2.92 ± 0.14
protein stability index (ubr1∆): 3.38 ± 0.27

VFTALLRLFINEEGDWS [ITC1]
protein stability index (doa10∆): 3.4 ± 0.29
protein stability index (pdr5∆): 2.08 ± 0.17

TLSLPDSQDYILSINAI [SMC1]
protein stability index (doa10∆): 2.85 ± 0.041
protein stability index (pdr5∆): 2.95 ± 0.05
protein stability index (san1∆): 2.9 ± 0.04
protein stability index (ubr1∆): 2.87 ± 0.044

QLKYDTSVQEKELMLQS [YIL149C/MLP2]
protein stability index (doa10∆): 2.23 ± 0.11
protein stability index (pdr5∆): 2.88 ± 0.17
protein stability index (san1∆): 2.81 ± 0.1
protein stability index (ubr1∆): 2.53 ± 0.12

RKWVIFITKHLPLLILE [NUT1]
protein stability index (doa10∆): 1.7 ± 0.067
protein stability index (pdr5∆): 1.25 ± 0.045
protein stability index (san1∆): 1.21 ± 0.1
protein stability index (ubr1∆): 1.2 ± 0.03

HGLKQLRDSLADKIVDE [NUT2]
protein stability index (doa10∆): 3.11 ± 0.083
protein stability index (pdr5∆): 2.13 ± 0.077
protein stability index (san1∆): 1.52 ± 0.071
protein stability index (ubr1∆): 2.3 ± 0.055

NVVNYLSINKNFINQED [RPC17]
protein stability index (doa10∆): 1.39 ± 0.071
protein stability index (pdr5∆): 1.83 ± 0.061
protein stability index (san1∆): 1.55 ± 0.079
protein stability index (ubr1∆): 1.61 ± 0.045

TVKRGAAGIWTCSCCKK [RPL43A]
protein stability index (doa10∆): 1.68 ± 0.085
protein stability index (pdr5∆): 1.74 ± 0.058
protein stability index (san1∆): 1.74 ± 0.11
protein stability index (ubr1∆): 1.94 ± 0.062

NYPQLTEDILKEISTRV [YCS4]
protein stability index (pdr5∆): 3.11 ± 0.17
protein stability index (ubr1∆): 3.41 ± 0.13

ASVGDILKTLERSICAL [YML031W/NDC1]
protein stability index (doa10∆): 2.12 ± 0.066
protein stability index (pdr5∆): 2.94 ± 0.088
protein stability index (san1∆): 2.79 ± 0.086
protein stability index (ubr1∆): 2.64 ± 0.058

DEDLLDTQTFSVLLQQL [YGL172W/NUP49]
protein stability index (doa10∆): 2.93 ± 0.059
protein stability index (pdr5∆): 2.81 ± 0.063
protein stability index (san1∆): 1.72 ± 0.11
protein stability index (ubr1∆): 2.57 ± 0.045

YLGTKVELPYGAHGYSG [PRE1]
protein stability index (doa10∆): 2.77 ± 0.18
protein stability index (pdr5∆): 2.38 ± 0.11
protein stability index (san1∆): 2.5 ± 0.1
protein stability index (ubr1∆): 2.96 ± 0.086

AASSQVSIVKLDTQLIT [SNF12]
protein stability index (doa10∆): 1.69 ± 0.08
protein stability index (pdr5∆): 1.74 ± 0.07
protein stability index (san1∆): 1.64 ± 0.16
protein stability index (ubr1∆): 2.02 ± 0.11

FNAPATGNGTTTTSNTS [YOR098C/NUP1]
protein stability index (doa10∆): 2.44 ± 0.034
protein stability index (pdr5∆): 2.83 ± 0.035
protein stability index (san1∆): 2.8 ± 0.035
protein stability index (ubr1∆): 2.836 ± 0.027

FAQENSELAVATTSVMM [SRB6]
protein stability index (doa10∆): 2.82 ± 0.13
protein stability index (pdr5∆): 3.13 ± 0.14
protein stability index (san1∆): 3.13 ± 0.07
protein stability index (ubr1∆): 3.33 ± 0.11

STNSNSKPSTASPSAHT [RPN4]
protein stability index (doa10∆): 2.63 ± 0.055
protein stability index (pdr5∆): 3.01 ± 0.086
protein stability index (san1∆): 2.75 ± 0.061
protein stability index (ubr1∆): 2.82 ± 0.042

NLQAKPLVGKPKTELTK [YAR002W/NUP60]
protein stability index (doa10∆): 2.72 ± 0.098
protein stability index (pdr5∆): 2.52 ± 0.067
protein stability index (san1∆): 2.7 ± 0.088
protein stability index (ubr1∆): 2.39 ± 0.1

PIPSSETKADGILLETI [RRP6]
protein stability index (doa10∆): 2.86 ± 0.1
protein stability index (pdr5∆): 2.36 ± 0.065
protein stability index (san1∆): 2.12 ± 0.1
protein stability index (ubr1∆): 2.53 ± 0.052

TTQIDLFRIFSMSEEFK [BRR2]
protein stability index (doa10∆): 2.4 ± 0.14
protein stability index (pdr5∆): 3.12 ± 0.1
protein stability index (san1∆): 2.49 ± 0.23
protein stability index (ubr1∆): 3.12 ± 0.073

ILRKELSEEKEVIFTDV [MCD1]
protein stability index (doa10∆): 2.66 ± 0.15
protein stability index (pdr5∆): 3.02 ± 0.23
protein stability index (san1∆): 2.32 ± 0.12
protein stability index (ubr1∆): 2.73 ± 0.17
